Assay results from patent US20150119341A1 (PALATIN TECHNOLOGIES, published 2015).
Read-outs that look alike come from different tables or passages of the source. [ ]: non-standard residue; d: D form. Nle = CCCC[C@H](N)C(=O)O; Orn = NCCC[C@H](N)C(=O)O; Dab = NCC[C@H](N)C(=O)O; Sar = CNCC(=O)O

B1: Ac-Nle-His-D-Phe-Arg-Ala-Trp-NH2 (peptide)
peptide: Ac-[Nle]H[dF]RAW-NH2
SMILES: CCCC[C@H](NC(C)=O)C(=O)N[C@@H](Cc1c[nH]cn1)C(=O)N[C@H](Cc1ccccc1)C(=O)N[C@@H](CCCNC(=N)N)C(=O)N[C@@H](C)C(=O)N[C@@H](Cc1c[nH]c2ccccc12)C(N)=O
notes: synthetic linear peptide
B2: Ac-Nle-Ala-Orn-D-Phe-Arg-Ala-Trp-NH2 (peptide)
peptide: Ac-[Nle]A[Orn][dF]RAW-NH2
SMILES: CCCC[C@H](NC(C)=O)C(=O)N[C@@H](C)C(=O)N[C@@H](CCCN)C(=O)N[C@H](Cc1ccccc1)C(=O)N[C@@H](CCCNC(=N)N)C(=O)N[C@@H](C)C(=O)N[C@@H](Cc1c[nH]c2ccccc12)C(N)=O
B3: Ac-Nle-Ala-His-D-Phe-Arg-Gly-Trp-NH2 (peptide)
peptide: Ac-[Nle]AH[dF]RGW-NH2
SMILES: CCCC[C@H](NC(C)=O)C(=O)N[C@@H](C)C(=O)N[C@@H](Cc1c[nH]cn1)C(=O)N[C@H](Cc1ccccc1)C(=O)N[C@@H](CCCNC(=N)N)C(=O)NCC(=O)N[C@@H](Cc1c[nH]c2ccccc12)C(N)=O
notes: synthetic linear peptide
B4: Ac-Nle-Ala-Lys-D-Phe-Arg-Ala-Trp-NH2 (peptide)
peptide: Ac-[Nle]AK[dF]RAW-NH2
SMILES: CCCC[C@H](NC(C)=O)C(=O)N[C@@H](C)C(=O)N[C@@H](CCCCN)C(=O)N[C@H](Cc1ccccc1)C(=O)N[C@@H](CCCNC(=N)N)C(=O)N[C@@H](C)C(=O)N[C@@H](Cc1c[nH]c2ccccc12)C(N)=O
notes: synthetic linear peptide
B5: Ac-Nle-Ala-His-D-Phe-Arg-Sar-Trp-NH2 (peptide)
peptide: Ac-[Nle]AH[dF]R[Sar]W-NH2
SMILES: CCCC[C@H](NC(C)=O)C(=O)N[C@@H](C)C(=O)N[C@@H](Cc1c[nH]cn1)C(=O)N[C@H](Cc1ccccc1)C(=O)N[C@@H](CCCNC(=N)N)C(=O)N(C)CC(=O)N[C@@H](Cc1c[nH]c2ccccc12)C(N)=O
B6: Ac-Nle-Ala-Dab-D-Phe-Arg-Ala-Trp-NH2 (peptide)
peptide: Ac-[Nle]A[Dab][dF]RAW-NH2
SMILES: CCCC[C@H](NC(C)=O)C(=O)N[C@@H](C)C(=O)N[C@@H](CCN)C(=O)N[C@H](Cc1ccccc1)C(=O)N[C@@H](CCCNC(=N)N)C(=O)N[C@@H](C)C(=O)N[C@@H](Cc1c[nH]c2ccccc12)C(N)=O

What was measured:
[1] = target: T1, human melanocortin-1 receptor (hMCR-1) expressed by the human melanoma cell line HBL (human, UniProt Q01726 1-317); assay: cell-based or functional assay
[2] = target: T2, recombinant human melanocortin-1 receptor (hMCR-1a) in membrane homogenates of HEK-293 cells (human, UniProt Q01726 1-317); assay: competitive inhibition of [I125]-NDP-alpha-MSH, hMCR-1 HEK-293 membranes
T2 construct: whole, on cells; Used as membrane homogenates, not intact cells; also called hMCR-la; MC-1
Description: (§1) A competitive inhibition binding assay was performed using membrane homogenates prepared from HEK-293 cells that express recombinant hMCR-la or hMCR-4 (in each instance where the h prefix refers to human), or alternatively membrane homogenates from B16-F10 mouse melanoma cells containing endogenous murine MCR-1. In the examples that follow, all MCR-1 and MCR-4 values are for human recombinant receptors, unless otherwise noted. Assays were performed in 96 well polypropylene round-bottom plates (VWR catalog number 12777-030).
(§2) Membrane homogenates were incubated with 0.1 nM [I¹²⁵]-NDP-α-MSH (Perkin Elmer) and increasing concentrations of test peptides of the present invention in buffer containing 25 mM HEPES buffer (pH 7.5) with 100 mM NaCl, 2 mM CaCl₂, 2 mM MgCl₂, 0.3 mM 1,10-phenanthroline, and 0.2% bovine serum albumin. After incubation for 90 minutes at 37° C., the assay mixture was filtered onto GF/B Unifilter plates (Perkin-Elmer catalog number 6005177) and washed with 3 mL of ice-cold buffer per well. Filters were air dried and 35 μL of scintillation cocktail added to each well. Plates were counted in a Microbeta counter for bound radioactivity. […] Maximal specific binding (100%) was defined as the difference in radioactivity (cpm) bound to cell membranes in the absence and presence of 1 μM NDP-α-MSH. Each assay was conducted in duplicate and the actual mean values are described, with results less than 0% reported as 0%. Ki values for peptides of the present invention were determined using Graph-Pad PRISM® curve-fitting software.

[3] = target: T3, recombinant human melanocortin-4 receptor (hMCR-4) in membrane homogenates of HEK-293 cells (human, UniProt P32245 1-332); assay: competitive inhibition of [I125]-NDP-alpha-MSH, hMCR-4 HEK-293 membranes
T3 construct: whole, on cells; Used as membrane homogenates, not intact cells; also called MC-4
Description: as §1, §2

[4] = target: T1, human melanocortin-1 receptor (hMCR-1) …; assay: cell-based or functional assay; remark: listed apart in the source
[5] = target: T1, human melanocortin-1 receptor (hMCR-1) …; assay: cell-based or functional assay; remark: listed apart in the source
[6] = target: T1, human melanocortin-1 receptor (hMCR-1) …; assay: cell-based or functional assay; remark: listed apart in the source
[7] = target: T1, human melanocortin-1 receptor (hMCR-1) …; assay: cell-based or functional assay; remark: listed apart in the source
[8] = target: T1, human melanocortin-1 receptor (hMCR-1) …; assay: cell-based or functional assay; remark: listed apart in the source

T3 sequence (P32245 whole entry): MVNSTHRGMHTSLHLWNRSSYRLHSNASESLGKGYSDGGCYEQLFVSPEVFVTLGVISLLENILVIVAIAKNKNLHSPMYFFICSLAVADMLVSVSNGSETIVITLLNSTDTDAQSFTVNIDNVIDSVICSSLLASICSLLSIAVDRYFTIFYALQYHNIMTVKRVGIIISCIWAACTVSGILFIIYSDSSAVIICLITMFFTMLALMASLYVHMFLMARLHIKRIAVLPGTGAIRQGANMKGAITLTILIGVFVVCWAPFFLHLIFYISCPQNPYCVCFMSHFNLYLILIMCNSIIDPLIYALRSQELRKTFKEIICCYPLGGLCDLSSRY
T2 sequence (Q01726 whole entry): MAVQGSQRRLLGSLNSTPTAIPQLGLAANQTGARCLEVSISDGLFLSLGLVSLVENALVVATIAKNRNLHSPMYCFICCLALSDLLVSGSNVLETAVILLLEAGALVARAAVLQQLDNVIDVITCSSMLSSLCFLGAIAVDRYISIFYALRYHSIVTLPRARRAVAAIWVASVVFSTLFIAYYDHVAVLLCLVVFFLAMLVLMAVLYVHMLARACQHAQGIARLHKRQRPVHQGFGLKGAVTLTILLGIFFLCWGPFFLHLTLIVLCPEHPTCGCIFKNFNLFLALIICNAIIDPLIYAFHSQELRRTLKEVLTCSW
T1 sequence (Q01726 whole entry): as above

| Binder | Ki [2] | Ki [3] | also measured |
| --- | --- | --- | --- |
| B1 | 35 nM | 3420 nM | MC-1 EC50 (average; cAMP HBL) [1]: 1 nM |
| B2 | – | – | MC-1 EC50 (average; cAMP HBL) [4]: 0.045 nM |
| B3 | 0.8 nM | 885 nM | MC-1 EC50 (average; cAMP HBL) [5]: 0.038 nM |
| B4 | 4 nM | 10000 nM | MC-1 EC50 (average; cAMP HBL) [6]: 0.1 nM |
| B5 | – | – | MC-1 EC50 (average; cAMP HBL) [7]: 0.17 nM |
| B6 | – | – | MC-1 EC50 (average; cAMP HBL) [8]: 0.165 nM |
